Laboratory results reported in article doi:10.1101/655282.
Where no end group is shown, it is not given here. [ ]: non-standard residue; d: D form. pS = N[C@@H](COP(=O)(O)O)C(=O)O

Target: SUMO1 (UniProt P63165)
Chain of UniProt P63165 (P63165 1-97): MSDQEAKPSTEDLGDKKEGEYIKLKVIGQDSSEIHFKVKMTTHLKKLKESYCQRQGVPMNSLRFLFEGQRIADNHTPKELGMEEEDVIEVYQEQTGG

| Binder | rate of increase in anisotropy, real-time SUMOylation assay with SUMO1 |
| --- | --- |
| PLIKQEDIKPEPDFTIQYRNKIIDTAGCIVISDSEEEQG (also: FITC label, site not given here) [IE2 N-Terminal Domain (IE2-NTD), FITC labelled] | 0.00012 min⁻¹ |
| PLIKQEDIKPEPDFTIQYRNKIIDTAGCIVI[pS]D[pS]EEEQG (also: FITC label, site not given here) [phosphorylated IE2-NTD (IE2-ppNTD)] | 0.00021 min⁻¹ |
